Test results as given in patent publication US20250042970A1 (AURINIA PHARMACEUTICALS, published 2025).
Read-outs that look alike come from different tables or passages of the source. One block for each binder: values may come before it.

Columns and labels:
FLAG-tagged human BAFF [1] = molecular target: T1, FLAG-tagged human BAFF (human, UniProt Q9Y275 134-285, limits assumed); assay: BIACORE SPR; NB = No binding
T1 construct: used in BIACORE (Ex. 9) and KINEXA (Ex. 11); also called huBAFF
Protocol: (§1) For human BAFF, cynomolgus monkey APRIL, and mouse APRIL measurements, mouse monoclonal antibody (IgG1) anti-FLAG M2 (Sigma Aldrich, Cat. No. F1804) was immobilized on CM3 sensor chips (GE Healthcare, Cat. No. BR-1005-41) according to the manufacturer's protocol. Antibody was diluted to 30 μg/ml in immobilization buffer (10 mM pH 5±0.20; GE Healthcare; GE Healthcare, Catalog No. BR-1003-51). […] Unreacted sites were quenched with 35 μl of 1M ethanolamine-HCl, pH 8.5 (GE Healthcare, GE Healthcare, Cat. No. BR-1000-50). This procedure typically yielded 3,000-4,000 response units (RU) of coupled antibody.
(§2) The fusion polypeptides were diluted in HBS-EP buffer and flowed over ligand-coated sensor chips. The variant BCMA-Ig and surrogate control fusion proteins were injected at three concentrations (1.5 nM, 15 nM, and 150 nM at 30 μl/min for 2 minutes per association phase) in a single binding cycle, followed by a 20 minute incubation with HBS-EP buffer containing no protein at the same flow rate. A similar protocol was followed for Z-TACI-Ig, except that the injections were at 4.5 nM, 45 nM, and 450 nM.
(§3) Using available information from the structures and published literature, several residues in BAv8-10 were targeted for substitution with conserved as well as non-conserved residues and their effect on BAFF and APRIL binding was assessed by BIACORE.

[2] = molecular target: T2, FLAG-tagged cynomolgous APRIL (cynomolgus monkey, UniProt A0ACM8R0G4 110-250 (rhesus entry)); assay: BIACORE SPR; NB = No binding
T2 construct: FLAG-tagged, expressed with TPA signal peptide; also called cyAPRIL
T2 sequence: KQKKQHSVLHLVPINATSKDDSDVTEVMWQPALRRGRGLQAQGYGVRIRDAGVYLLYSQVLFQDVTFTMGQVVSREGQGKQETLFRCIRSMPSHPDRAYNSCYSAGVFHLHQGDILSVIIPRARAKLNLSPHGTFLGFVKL
Protocol: as §1, §2, §3

FLAG-tagged human BAFF [3] = molecular target: T1, FLAG-tagged human BAFF; assay: KinExA
Protocol: (§4) Equilibrium measurements were performed using FLAG-tagged, recombinant huBAFF and huAPRIL ligands. Fixed ligand concentrations of human BAFF or human APRIL were incubated with serial dilutions of the variant BCMA ECD-Ig fusion polypeptides, and free ligand was detected in a KINEXA 3200 Instrument. variant BCMA ECD-Ig fusion polypeptides were first diluted in equilibration buffer (1×PBS, pH 7.4, 1 mg/ml BSA) to a range of concentrations from 10 nM to 100 fM. The linear portion of the dilution series was typically 2-fold. Ligands were diluted in equilibration buffer to fixed concentrations ranging from 5 to 20 pM and then incubated with the variant BCMA-Ig dilutions in total reaction volumes ranging from 4.5 to 15 ml. Samples were incubated at room temperature for 48-72 hours to reach equilibrium. For each data point, a fresh column of 850 μl of bead slurry coated with Variant BAv-238475-Ig was introduced into the KINEXA flow cell. Equilibrated samples ranging from 1 to 5 ml reaction volume were injected at a flow rate of 0.25 ml/min. […] The DyLight 649 fluorescent signal was detected using the red filter set (620/30 nanometer excitation filter, 670/40 nanometer emission filter, 645 nanometer dichroic filter) on the KinExA instrument and converted to a voltage signal that was directly proportional to the concentration of free ligand in the equilibrated sample.
(§5) The standard kinetic exclusion assays and data analyses described above were performed on protein preparations of various variant BCMA ECD-Ig fusion polypeptides, as well as Z-TACI-Ig and [S40G]huBCMA ECD-Ig fusion polypeptides. FIG. 8A, FIG. 8B, and Table 4 summarize the binding data for representative variant BCMA ECD-Ig polypeptides and controls in molar concentrations of huBAFF or huAPRIL determined by KINEXA binding assays.

[4] = molecular target: T3, FLAG-tagged recombinant human APRIL (human, UniProt O75888 105-250); assay: KinExA
T3 construct: KINEXA ligand; also called huAPRIL
T3 sequence: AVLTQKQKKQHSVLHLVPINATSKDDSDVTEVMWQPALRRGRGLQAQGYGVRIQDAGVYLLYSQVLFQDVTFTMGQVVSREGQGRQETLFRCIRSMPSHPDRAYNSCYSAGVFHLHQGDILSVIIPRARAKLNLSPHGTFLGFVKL
Protocol: as §4, §5

FLAG-tagged human BAFF [5] = molecular target: T1, FLAG-tagged human BAFF; assay: KinExA; remark: listed apart in the source
Protocol: as §4
(§6) Table 5 provides the selectivities of exemplary variant BCMA polypeptides with respect to BAFF and APRIL.

[6] = molecular target: T3, FLAG-tagged recombinant human APRIL; assay: KinExA; remark: listed apart in the source
Protocol: as §4, §6

FLAG-tagged human BAFF [7] = molecular target: T1, FLAG-tagged human BAFF; assay: KinExA; remark: listed apart in the source
Protocol: as §4
(§7) The various fusion proteins described above were expressed and purified as described previously (Examples 2 and 3 for the CET1019AS based plasmids and Examples 7 and 8 for the pcDNA based plasmids). […] The BAv9-1-Ig Fc proteins typically exist in solution as a dimeric fusion protein. The purified fusion proteins were assayed for binding activity using BIACORE (Example 9) and KINEXA (Example 11) assays.

[8] = molecular target: T3, FLAG-tagged recombinant human APRIL; assay: KinExA; remark: listed apart in the source
Protocol: as §4, §7

FLAG-tagged human BAFF [9] = molecular target: T1, FLAG-tagged human BAFF; assay: BIACORE SPR
Protocol: as §1, §2, §7

[10] = molecular target: T2, FLAG-tagged cynomolgous APRIL; assay: BIACORE SPR
Protocol: as §1, §2, §7

binding result (FLAG-tagged human BAFF [1]): no binding (tested: 150 nM) | binding result [2]: no binding (tested: 150 nM)
B2: BAv70-Ig (Fc fusion)
chain: AGQCSQNEYFDHLIRACQPCQLRCSSNTPPLTCQRYCNAGVTNSVKGTNA
notes: not shown: PIg18: human IgG2 Fc, Ser at Fc positions 4, 5, 11 (native Cys)

binding result (FLAG-tagged human BAFF [1]): no binding (tested: 150 nM) | binding result [2]: no binding (tested: 150 nM)
B4: BAv68-Ig (Fc fusion)
chain: AGQCSQNEYFDSLIRACQPCQVRCSSNTPPLTCQRYCNAGVTNSVKGTNA
notes: as for B2

Kd (FLAG-tagged human BAFF [3]): 0.254 pM | fold improvement over control (FLAG-tagged human BAFF [3]): 890 fold | Kd [4]: 114 pM | fold improvement over control [4]: 0.0014 fold | Selectivity for huBAFF (KD APRIL/KD BAFF) (FLAG-tagged human BAFF [5]): 449 ratio | Selectivity for huAPRIL (KD BAFF/KD APRIL) [6]: 0.002 ratio | Kd (FLAG-tagged human BAFF [7]): 0.254 pM | Kd [8]: 114 pM | Kd (FLAG-tagged human BAFF [9]): 8.09 pM | Kd [10]: 707 pM
B5: BAv83-Ig (Fc fusion)
chain: AGQCSQNEYFDPLVRACIPCQIRCSSNTPPLTCQRYCNAGVTNSVKGTNA
notes: also called BAv83 (2)-Ig; BAv83-pIg18; not shown: PIg18: human IgG2 Fc, Ser at Fc positions 4, 5, 11 (native Cys)

Further lines, the binder ahead of its results:

B1: BAv54-Ig (Fc fusion)
chain: AGQCSQNEYFDHLSRACIPCQVRCSSNTPPLTCQRYCNAGVTNSVKGTNA
notes: as for B2
binding result (FLAG-tagged human BAFF [1]): no binding (tested: 150 nM) | binding result [2]: no binding (tested: 150 nM)

B3: BAv77-Ig (Fc fusion)
chain: AGQCSQNEYFDHLVRACIPCQVTCSSNTPPLTCQRYCNAGVTNSVKGTNA
notes: as for B2
binding result (FLAG-tagged human BAFF [1]): no binding (tested: 150 nM) | binding result [2]: no binding (tested: 150 nM)
